Consider four molecules from patent US20060167238, “Gene expression using metal ion dependent repressor/operator tandems” (ADVANCED MICROBIAL SOLUTIONS CORPORATION, published 2006).

Holding throughout (experiment): EMSA
In general terms: A gel shift assay detects complexes by their altered migration in electrophoresis.

The target in one data set is T1, DtxR (Corynebacterium diphtheriae, UniProt P0DJL7 P0DJL7:1-226).
T1 sequence: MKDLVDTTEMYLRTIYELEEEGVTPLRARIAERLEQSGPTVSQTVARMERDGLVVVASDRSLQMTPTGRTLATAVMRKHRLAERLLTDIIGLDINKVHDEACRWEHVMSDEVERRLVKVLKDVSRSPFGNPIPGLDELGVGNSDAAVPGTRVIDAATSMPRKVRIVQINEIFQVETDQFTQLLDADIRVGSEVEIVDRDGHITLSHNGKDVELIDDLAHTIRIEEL
The settings on record: chain copies: 4.

Another data set concerns the target EfaR (Enterococcus faecalis, UniProt Q93CH5 Q93CH5:1-222). The settings on record: tags: untagged (pQN vector); label: 32P.
The target in a further data set is T2, SirR (UniProt Q5HRA0 Q5HRA0:1-214).
T2 sequence: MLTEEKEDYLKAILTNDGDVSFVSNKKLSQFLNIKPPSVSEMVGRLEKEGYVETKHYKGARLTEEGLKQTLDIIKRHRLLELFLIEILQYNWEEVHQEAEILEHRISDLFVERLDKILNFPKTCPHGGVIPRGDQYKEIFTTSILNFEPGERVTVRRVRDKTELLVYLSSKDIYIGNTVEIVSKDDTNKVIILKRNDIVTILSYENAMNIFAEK

B1: tacP (dsDNA)
DNA 1: CCCTGTTGACAATTAATCATCGGCTCGTATAATGTGTGGAATTGTGAGCGGATAACAATTTCA
DNA 2: TGAAATTGTTATCCGCTCACAATTCCACACATTATACGAGCCGATGATTAATTGTCAACAGGG
For B1, the binding result with DtxR is listed as “no binding”.

B2: tacPtoxO hybrid promoter/operator (dsDNA)
DNA 1: CCCTGTTGACAATTAATCACCGGTACCTATAATTAGGATAGCTTTACCTAATTATTTTACACCC
DNA 2: GGGTGTAAAATAATTAGGTAAAGCTATCCTAATTATAGGTACCGGTGATTAATTGTCAACAGGG
On to B2, for which the binding result with DtxR is reported as “binds”.

B3: efaABC promoter/operator (efa box) (dsDNA)
DNA 1: TTTTCTTAAACTATCCCTTATACTGATTTTAAGGCAAACCTAAAAA
DNA 2: TTTTTAGGTTTGCCTTAAAATCAGTATAAGGGATAGTTTAAGAAAA
Take B3: in the data set with EfaR, the binding result is recorded as “binds”.

B4: sitABC box (dsDNA)
DNA 1: AACTTGACATGTTAAAACTTTAGAGTATATTATAAAATAAATTAGGTTAACCTAAACTTTTTATTAGGAGG
DNA 2: CCTCCTAATAAAAAGTTTAGGTTAACCTAATTTATTTTATAATATACTCTAAAGTTTTAACATGTCAAGTT
In the case of B4, the binding result with SirR was “binds”.
